The data set is described as follows: soluble on expression in E. coli; label from the status in PepcDB or PDB records.
Turning to “MSLTQIQPGVEKFIKDFNDAKKKGEHAYDMTLSYQNFDKGFFNSRFQMQMTFDNGAPDLNIKPGQKVVFDVDVEHGPLPITMLMHGNVIPALAAAKVNLVNNELTQPLFIAAKNKSPVEATLRFAFGGSFSTTLDVAPAEYGKFSFGEGQFTFNGDGSSLSNLDIEGKVEDIVLQLSPMNKVTAKSFTIDSLARLEEKKFPVGESESKFNQINIINHGEDVAQIDAFVAKTRLDRVKDKDYINVNLTYELDKLTKGNQQLGSGEWSLIAESIDPSAVRQFIIQYNIAMQKQLAAHPELANDEVALQEVNAALFKEYLPLLQKSEPTIKQPVRWKNALGELNANLDISIADPAKSSSSTNKDIKSLNFDVKLPLNVVTETAKQLNLSEGMDAEKAQKQADKQISGMMTLGQMFQLITIDNNTASLQLRYTPGKVVFNGQEMSEEEFMSRAGRFVHEGHHHHHH”, the “soluble on expression in E. coli” value is “not soluble”.
On to “MSLTQPPQQAISAAHSELEQNHRVLLQLMDTLVSQIKDYSEDVEFNLQNDSTIKNTIVEILSFISRSNQKDQLSLKVSQAVVNSLFGSNESKLCRDVLSLLLEKLCSLSIVARKDVVWWLVYALDPRKFNVPVVRSLLEVNLINIAEFDAVLVTAMKNGMAGATEFSMNLIRDTVMADSPILMRLDFIRILGYLRTINTPEIKAFLEEYEQCRAVPVSKTTSITKVERYYLVFTEWVKLQQRVETDDVVNIVFIRQLFEKGVIDSKEKVIEFIKAALELSVNSFKQSDPTGEVFTSIDALSRLITSLLVVQELNVEERKEYLNLLLSVVTLVFAKDHQTNMTSFNERPYFRLYSSLLSDWDKLRDHHFIRVSDSVVRKSLIEFDQYFFDIFASFLHSYQPIAFPGFSFAWITLISHRMFLPKVLRSKELYGWDKLVLLLIDLMKFLSQYIKKDNVPDSISVIYKGALRIFLGISNDVPEFLIQNHYKLVKNVPPTCIQLRNIILSAIPKKMMIPDPFVSEITEDNCKDIPQVFYDPSQDLKSLKKPIINYLRIPSSSLLRTICGGMFRTELEYENGIGYDENNVDVNLIHAIVTHVAVEVGLEVEKASKNAVFNVKSSYYTLLFGLLSDGNDEVKFHIIQAMVNQLRYPNVHTHWFNFALKLMFQSDQWPDDQLSTIQEIILRSLLERIIVNKPHPWGVVVTFMDLLKLEGTKMIEKPFINDIPEIHAIMKNLQKYALTSSSEGHHHHHH”, for which the “soluble on expression in E. coli” value was “soluble”.
With “MSLTQVIPTSLLQRLSLLFGCAGIVLGTAVANASSPASRDLFEIHVRPTLIKHCIQCHGETEQEGGLKLTSLDAMLAGGDSGPAIVPGNADDSLILEALRFESFEMPPAGQLDDPVVNGFASWIKAGAPWPEDLILTPMPIITEDDRDWWCYQPIADPVVPDVDDDSWCRNEIDRFVLDRLKQENLRPADEATASQLTRRLHFALTGLPPTCPPPSNQQNADSSADDWYEAQLNELLSSPAYGEHQARYWMDLVRYADSDGYNADHARPHAHLYRDYVIRSFNEDKPYDRFVCEQLAGDEIDPGNRDALIGTMYLRHWIYEWNQRDVEGQWQEIISDITETTADVFLAQGLKCARCHDHKFDPLLQRDFFALKAFFTPLLPREDFPVADVATREGHHHHHH”, the “soluble on expression in E. coli” value was “not soluble”.
The entry for “MSLTRSTRNSIEFKVWGRHALFTDPLTKVGGEKCSYHVPTYEALKGIAKSIYWKPTLIWVIDEVRVMKRVRTQTKGTKPLEFGGGNSLAIYTFLADVEYQVRAHFEWNEHRPELQADRIDGKHYAIARRMLERGGRQDIFLGTRDCQGYIEPCEFGGGAGAHDEGSELAFGLMFHGFDYPDETGDQKLHARFWRPVMRNGFIRFDRPEDCPVRKFVRSMSVKPFGFGQNLQSADEAAAELEGLAEGHHHHHH” is “soluble”; for “MSLTSNIFSGCMPALMTPCKADRSPDFDALVKKGKELIEAGMSAVVYCGSMGDWPLLTDEQRMEGVERLVKAGVPVVVGTGAVNTRVAVAHAAHAAKVGARGLMVIPRVLSRGSSVSAQRNHFSDILKAAPSLPAVIYNSPYYGFATRADLFFDLRREFPNLIGFKEFGGLADLRYAAENITSQDDQVTLMVGVDTAVYHGFVNCGATGAITGIGNALPKEVLHLVALCQKAAEGHAEARLRARELEEALAVLSSFDEGSDLVLYYKHLMVLNGEDEYRLHFNETDALSDAQRNYAEAQYELFRTWYADWSTKGEGHHHHHH” it is “soluble”.
As for “MSLTTLHFSGFPRVGAFRELKFAQEKYWRKEISEQELLAVAKDLREKNWKHQVAANADFVAVGDFTFYDHILDLQVATGAIPARFGFDSQNLSLEQFFQLARGNKDQFAIEMTKWFDTNYHYLVPEFHADTEFKANAKHYVQQLQEAQALGLKAKPTVVGPLTFLWVGKEKGAVEFDRLSLLPKLLPVYVEILTALVEAGAEWIQIDEPALAVDLPKEWVEAYKDVYATLSKVSAKILLSTYFGSVAEHAALLKALPVDGLHIDLVRAPEQLDAFADYDKVLSAGVIDGRNIWRANLNKVLETVEPLQAKLGDRLWISSSCSLLHTPFDLSVEEKLKANKPDLYSWLAFTLQKTQELRVLKAALNEGRDSVAEELAASQAAADSRANSSEIHRADVAKRLADLPANADQRKSPFADRIKAQQAWLNLPLLPTTNIGSFPQTTEIRQARSAFKKGELSAADYEAAMKKEIALVVEEQEKLDLDVLVHGEAERNDMVEYFGELLSGFAFTQYGWVQSYGSRCVKPPIIFGDVSRPEAMTVAWSTYAQSLTKRPMKGMLTGPVTILQWSFVRNDIPRSTVCKQIALALNDEVLDLEKAGIKVIQIDEPAIREGLPLKRADWDAYLNWAGESFRLSSAGCEDSTQIHTHMCYSEFNDILPAIAAMDADVITIETSRSDMELLTAFGEFQYPNDIGPGVYDIHSPRVPTEAEVEHLLRKAIEVVPVERLWVNPDCGLKTRGWKETLEQLQVMMNVTRKLRAELAKEGHHHHHH”, the “soluble on expression in E. coli” value is recorded as “not soluble”.
With “MSLTTRRDFIKKTVAGTAALSLGSIIPGFGSNSYQEILGANEKIRIGVIGVNSRGNALAQGFAKMKGCEVTYLCDVDSRALERCQADIHKISGRTPKGEKDIRKMLESDDFEAVVIATPDHWHGKAAIMAMQAGKHVYLEKPTSHNPAENEMLVRATLKYNRIVQVGNQRRSWPNVIKAIEEIKSGAIGKVRYAKSWYVNNRPSIGTGKVVPVPDYLDWDLWQGPAPRVPNFKDNYIHYNWHWFWNWGTGEALNNGTHFVDILRWGLGVDYPTKVDSVGGRYRFQDDWQTPDTQLITFQFGDEASCSWEGRSCNSTPVDGYGVGTAFYGETGTLFISGGNEYKITDLQGKVIKDVKSNLKFETGNLLNPSEKLDAYHFENWFDAIRKGGKLNSGIVDACISTQLVQLGNIAQRVGHSLDIDPGSGRILNDLEANKLWGREYEKGWEIREGHHHHHH”, the “soluble on expression in E. coli” value is reported as “soluble”.
On to “MSLVDLDLTQIQKDILYALITLYKKKSGGSVKGEEIAELINRNPGTVRNQMQALRALGLVEGVPGPKGGYRPTSKAYELLSVTRPEESVVVPVVVNGNVMEELSAEEIVLPSISNPNICQARIRIIGDIKKINPGDSVIVGPTPVNEMMVYGKVVGRDDTENTIVLDIEKIVALPKDTVGEHMSSPIISVDAEESVVNAAKVLAENGIYCTPVQKNGKFVGIFTLDHVAKAVAEGKLNAKVEEVMRPKLVMVEKDTKIGEALRLMRDEKVRILLVTDKGEPVGVITDQKILTRLAPEQVETEGHHHHHH”, for which the “soluble on expression in E. coli” value is “soluble”.
For the sequence “MSLVEMKFLTDRMLGRLTRWLRISGYDTVSVSELEFDEEEDEFMLRNLRDRILLTKDRELYRKSVKEGRKAILIRSDSLEGQMRELMERGVKFQIVMDRCSLCNTPLRKPSREEAMEVIEREKLSEDMLEFELWYCEKCRKLYWMGGHWKNMTRFLRKFESEGHHHHHH”, the “soluble on expression in E. coli” value is “soluble”.
Consider “MSLVKIVDVAKAANVSPAVVSRILSNDSKLVVREETRARVQQAIEALGYTPNLQARGLRLSRSNTLAMIVPELNSPVFPVIIQGAQRAAWERGYSLLVGGMGGEEEDPKVAGRLLRSNRIDGLLVTTGRHEAQMLQELATLNAPFVLVNRYLDDQHPYVELDERGAAAAITRHFIELGHRRIAFLGGLQRRVGERRVAGYADALAEAGLPWVPQLVVDAGYYKPGGEDGLRQLLALDEPPTAVVATNEIVAAGAMAAAHRQGVRIPRDLSIASFSDGIVAELLSPALTAVRFPLERMGYLATAMLVDIVEGRGAPQAGLCLPHESVVVRDSTARPPGRKARAATREGHHHHHH”, for which the “soluble on expression in E. coli” value was “not soluble”.
For the sequence “MSLVMSGEKMKVIIVEDEFLAQQELSWLINTHSQMEIVGSFDDGLDVLKFLQHNKVDAIFLDINIPSLDGVLLAQNISQFAHKPFIVFITAWKEHAVEAFELEAFDYILKPYQESRIINMLQKLTTAWEQQNNAASGLASAAPRENDTINLIKDERIIVTSIHDIYYAEAHEKMTFVYTRRESFVMPMNITEEGHHHHHH”, the “soluble on expression in E. coli” value was “not soluble”.
As to “MSLVSIKDIARYCGVSAMTVSRALNNSDDIAEATKEKILKVCEELKYKPNSAAKSLITKKTNMIGLIIPDIANQYYANISKGVSSYIEKHGYGLILCNSNRKKPNEVKYLDFLSEGRVDGIIILPVKPRKEDYEDISRQIPMVMADNFAKGLEVNFVGIDNYAGAIKIITHMVNQGYKKIGVILGDKDSTASSERLNGYKKVLEDKGISYNEDIVIHSNSTFEDGFNIASILIEKGVDSIFAINDTVAMGVIKYCYEKGIKLPEELGLAGYDNIEQAAMLTIPLTTVDQDNKKIGTIAAKMLVDAIKGNAKKTEKIILEPTLVIRKSCGEEGHHHHHH”, the “soluble on expression in E. coli” value is reported as “soluble”.
“MSLVTIKEIASAVGVSSATVSRVLNYDPTLSISTRKRQAIIETAEALNYATPRNRNRAAAQAVGSGLKIALVHFLDPAQELADPYYVGVRLGIESRCQALNSDVVKVFLTGNTPEATILEGASGVVAVGHYYGDELEWLRRHSRHLVFADYAPAGDMEDTVLSDVSQAMIRLLEAVHAMGYRRIGFIGWIDAFYGPDNIHSERRCHTYIDWMTKTGLFDPELCLVDPMTPDSGYRLAKAMLSKPNPPKILITCNDNMALGAYRAINEMGLRIPDDVAVASFNDIPVAQFLGPPLSTVKIPAELIGETAVDLLVERLSGREVAKKVVFGTEIIWRASTEGHHHHHH”: the “soluble on expression in E. coli” value is reported as “soluble”.
As for “MSLYDNDLWFATINLPYRQKLELLRIYKTSDEILYNFKNSELIQKYKFDIEKINYIKDEMKKSGMKIVFWNDDDYPKVLKNYDDMPYGLFYMGNIKKLNELNYNVAIVGSRRCTQYGKDITTIISREISINGIGIISGMARGIDTYAHKICLENNGYTCAVLGCGADVIYPKENKNLYCQIIRNGCIISQYKPNTKPLPYNFPIRNKIISGLSNLVLVTEADIKSGSIITASSALEQGKDVGAVPGSVFSKMSRGTNKLIQDGAHVIKDIDDVFGILNFQKINFKKIRNNSSYSSMPENQRQIYDLVSDKPIHVDDIKRCLNIDIQELYELLFEMQLKNKILCLSGSYYVRVNDCLEGHHHHHH”, the “soluble on expression in E. coli” value is “soluble”.
Regarding “MSLYFNKVLGMKEFGKDEKVFYRVAIRAIILQGDKILMVKSNTGDYKFPGGGVEKGETPEETLRREVQEETGYILNEVKEKFGVLIERDRRRRMGCTIFEMTSHYYLCSVIEERGEQHLDKYEEELGFTPIWISLDEVIRENENILNQREKINPWVKRETFVLKKIKEYLNENEGHHHHHH”, the “soluble on expression in E. coli” value is “soluble”.
As for “MSLYISYSPLRITFGGGGTDVEPFLSKHGGAVVNATIDRGVSVRYIEDEFQLELSSRDFVRSYIVNMHRAASVTKMMADFLSEAGITNGRVIMSGDAPPGSGLGSSSSAVSALMNLVNSIRGRTVDPATLAEESYNLERNHFHVVLGKQDPYAIAYGGFKYMEFGADGVKREDLGQYSEFTTELQRRILLVYTGKTRQSSEVLMEQVKASEMGDEKTDRNLLQMKDVARRLRDAVVKNDMDEFAHQINRGWEIKKSLSSRITNDHIDRIIALALSNGAQAARLMGGGSQGFVLVMCKPENLNYIQRRMMSISNFVVRTSFDMKGTRMIGHEGHHHHHH”, the “soluble on expression in E. coli” value was “not soluble”.

Source of the values: the DeepSol protein solubility set.
